# Experimental data published in the supplement of paper PMC7877785.
# ± gives the uncertainty stated by the source.
# Assay: self-splicing fitness, log relative to wild type (ln ratio); higher = more splicing; Tetrahymena group I intron in knt gene, E. coli kanamycin selection, DiMSum; sequences stand for … in CUCUCU…GGAGGGAAAAGUUAUCAGGCAUGCACCUGGUAGCUAGUCUUUAAACCAAUAGAUUGCAUCGGUUUAAAAGGCAAGACCGUCAAAUUGCGGGAAAGGGGUCAACAGCCGUUCAGUACCAAGUCUCAGGGGAAACUUUGAGAUGGCCUUGCAAAGGGUAUGGUAAUAAGCUGACGGACAUGGUCCUAACCACGCAGCCAAGUCCUAAGUCAACAGAUCUUCUGUUGAUAUGGAUGCAGUUCACAGACUAAAUGUCGGUCGGGGAAGAUGUAUUCUUCUCAUAAGAUAUAGUCGGACCUCUCCUUAAUGGGAGCUAGCGGAUGAAGUGAUGCAACACUGGAGCCGCUGGGAACUAAUUUGUAUGCGAAAGUAUAUUGAUUAGUUUUGGAGUACUCGUGGUCG
# Method in brief: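 Six replicate transformations of E. coli BL21(DE3) with a pET-22b(+) library were grown overnight at 37°C or 30°C. The library randomised all eight P1ex-region intron nucleotides, the intron lying in the knt kanamycin-resistance gene, and plates were LB agar with or without 25 μg/mL kanamycin plus 100 μg/mL carbenicillin, 50 μM IPTG and 0.2% rhamnose. Pooled colonies were amplicon-sequenced on an Illumina HiSeq 2500, and fitness is the DiMSum error-weighted combination of wild-type-normalised replicate fold changes, kanamycin versus none.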
Sequence,self-splicing fitness (ln) (30 °C),self-splicing fitness (ln) (37 °C)
UAGAAGCAAUAUUACGUAUA,-1.58 ± 0.16,-0.471 ± 0.15
UAGAAGCAAUAUUACGUCCU,-0.903 ± 0.12,-0.0829 ± 0.17
UAGAAGCAAUAUUACGUGGU,-3.52 ± 0.2,-2.54 ± 0.18
UAGAAGCAAUAUUACGUUGA,-2.99 ± 0.23,-1.62 ± 0.18
UAGAAGCAAUAUUACGUUUG,-2.32 ± 0.1,-0.879 ± 0.12
UAGCAGCAAUAUUACGAAUA,-0.737 ± 0.1,-0.606 ± 0.11
UAGCAGCAAUAUUACGAGUC,-4.81 ± 0.34,-2.22 ± 0.22
UAGCAGCAAUAUUACGAUGC,,-1.66 ± 0.49
UAGCAGCAAUAUUACGAUGG,-1.6 ± 0.063,-0.933 ± 0.073
UAGCAGCAAUAUUACGAUGU,-3.82 ± 0.21,-2.5 ± 0.2
UAGCAGCAAUAUUACGCACA,-0.126 ± 0.072,0.0233 ± 0.11
UAGCAGCAAUAUUACGCAUA,-1.09 ± 0.07,-0.101 ± 0.079
UAGCAGCAAUAUUACGCGAA,-1.54 ± 0.091,-1.24 ± 0.12
UAGCAGCAAUAUUACGCGAC,-3.54 ± 0.21,-1.67 ± 0.21
UAGCAGCAAUAUUACGCGCC,-1.77 ± 0.12,-1.16 ± 0.19
UAGCAGCAAUAUUACGCUCA,-0.152 ± 0.095,0.307 ± 0.1
UAGCAGCAAUAUUACGGAAC,-4.05 ± 0.27,-3.08 ± 0.31
UAGCAGCAAUAUUACGGAAG,-3.04 ± 0.16,-1.14 ± 0.15
UAGCAGCAAUAUUACGGAGC,-2.95 ± 0.44,-1.74 ± 0.49
UAGCAGCAAUAUUACGGCAG,-0.659 ± 0.1,0.546 ± 0.13

Sequence,self-splicing fitness (ln) (30 °C),self-splicing fitness (ln) (37 °C)
UAGCAGCAAUAUUACGGCUU,-1.1 ± 0.11,0.255 ± 0.15
UAGCAGCAAUAUUACGGUAA,-1.32 ± 0.09,-1.13 ± 0.11
UAGCAGCAAUAUUACGGUCA,-0.671 ± 0.07,0.278 ± 0.085
UAGCAGCAAUAUUACGUAUU,-3.99 ± 0.26,-1.54 ± 0.19
UAGCAGCAAUAUUACGUCGU,-3.4 ± 0.14,-1.97 ± 0.12
UAGCAGCAAUAUUACGUUAC,,-1.36 ± 0.22
UAGCAGCAAUAUUACGUUUA,-1.26 ± 0.067,-0.291 ± 0.078
UAGCAGCAAUAUUACGUUUC,-2.78 ± 0.29,-1.85 ± 0.33
UAGGAGCAAUAUUACGAAUA,-1.13 ± 0.41,
UAGGAGCAAUAUUACGACGA,-1.21 ± 0.2,-0.888 ± 0.28
UAGGAGCAAUAUUACGAGGC,-2.87 ± 0.17,-3 ± 0.29
UAGGAGCAAUAUUACGAUUA,-0.679 ± 0.065,0.31 ± 0.094
UAGGAGCAAUAUUACGCCUA,-3.16 ± 0.34,-3.02 ± 0.35
UAGGAGCAAUAUUACGCGCA,-0.955 ± 0.1,-0.414 ± 0.12
UAGGAGCAAUAUUACGCGCC,,-1.03 ± 0.37
UAGGAGCAAUAUUACGCGGG,,-1.24 ± 0.21
UAGGAGCAAUAUUACGCUGG,-2.38 ± 0.43,-0.826 ± 0.28
UAGGAGCAAUAUUACGGACG,,-0.862 ± 0.38
UAGGAGCAAUAUUACGGGGG,,-2.74 ± 0.41
UAGGAGCAAUAUUACGUAAA,-2.09 ± 0.16,-1.49 ± 0.15
